Tested on: MS2 coat protein
Assay: apparent KD of MS2 coat protein; designed switch direction (-1 OFF switch, 1 ON switch): 1; higher = weaker reporter binding
Procedure, shortened: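 An oligonucleotide input, 200 uM small-molecule ligand, or no input was present during titration of SNAP-549-labelled MS2 coat protein, which was doubled from 0.7 or 1.5 nM to 3 µM. Designed RNA switches had been transcribed on Illumina chips by stalled E. coli RNA polymerase. Apparent KD per design is the median over clusters of curves fitted to normalised cluster fluorescence.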

[1] = input ligand: microRNA oligo, concentration not stated
[2] = Eterna round: R95, input ligand: FMN 200 uM
[3] = Eterna round: R95, input ligand: microRNA oligo, concentration not stated
[4] = Eterna round: R95, input ligand: none

| Sequence | apparent KD of MS2 coat protein (input ligand: FMN 200 uM) [nM] | apparent KD of MS2 coat protein [1] [nM] | apparent KD of MS2 coat protein (input ligand: none) [nM] | apparent KD of MS2 coat protein [2] [nM] | apparent KD of MS2 coat protein [3] [nM] | apparent KD of MS2 coat protein [4] [nM] |
| --- | --- | --- | --- | --- | --- | --- |
| AAACGGUCGCUGCGGCGGCCACAUGAGGAUCACCCAUGUACAUAGGAUAUCGCCUAAAAUACUGGCGAGAAGGGUGAUUAAAGA [Ergegeti] (Eterna round: R96, puzzle: Same State NG 3) | 132 | 36.2 | 79.4 |  |  |  |
| AGCCGAGACACAGGAUAUACAUGUAUACAUGAGGAUCACCCAUGUAGCAACACGUGGUAGUGAUUGUAGAAGGGUGCUCGGCGC [Omei SS(NG)2 Cv13] (Eterna round: R96, puzzle: Same State NG 2) | 20.4 | 32 | 36.8 |  |  |  |
| AGAAAUCAACGCGCACAUGAGGAUCACCCAUGUGCUCAAGCACAGGAUAUCGGCACAAGACAGGCCGAGAAGGGUGGAGCACGA [Eternabot solution 3] (Eterna round: R96, puzzle: Same State NG 3) | 14.7 | 19.7 | 24.1 |  |  |  |
| GGGAGAGGCGCAGGAUAUGGUGAGGAUCACCCACUAGAAGGGUGCACAUGAGAAUCGGACAUGAGGAUCACCCAUGUUUGGCGC (Eterna round: R96, puzzle: Same State NG 1) | 393 | 121 | 565 |  |  |  |
| CGUCGUUUGGUAGGAUAUCGCUAUACAUGAGGAUCACCCAUGUUUACCACGCUGGUUUUUCAUACCGAGAAGGAUUCUGAUGUU [salish99_SSNG02_r04_017] (Eterna round: R96, puzzle: Same State NG 2) | 16 | 14.9 | 19.8 |  |  |  |
| GGAGCCGGCACCGAGGAUAUUCAUAUUAAAACAUGAGGAUCACCCAUGUAGGCCAGAAGGCCUUGGGAGAAGGCGGAUCGGCUCG [Xeonanis] (Eterna round: R96, puzzle: Same State 2) | 33.2 | 305 | 544 |  |  |  |
| ACAUUUAGCUCUUGCACAUGAGGAUCACCCAUGUUCGGUUCACAGGAUAUCUAGUCAAACGGGCUGGAGAAGGGUGGCAGGAGC [Islainon] (Eterna round: R96, puzzle: Same State NG 3) | 67.9 | 200 | 289 |  |  |  |
| ACGCAGCUGGGUGAGGAUAUCGGUGGUACAACAUGAGGAUCACCCAUGUCCGAAGCUCGGACCUCCGAGAAGGCGCCCGGCUGCG [Soinraesar Omei Mod 2] (puzzle: Same State 2) |  |  |  | 17.4 | 24.8 | 57.8 |
| CGUCCGGCCUGUGCUGGCCGGAUGCAUGUACAUGAGGAUCACCCAUGUUCAUGUGCAGGCUUUUUGCUCGUCUUGUG [salish99_mir208a_r3_008] (puzzle: Sensor for hsa-mir-208a) |  |  |  | 19.2 | 11.9 | 23.1 |
| AGUCCAGCGAGAGCUGGACAAAAGCAUGUACAUGAGGAUCACCCAUGUCAUGUACAAGCUUUUUGCUCGUCUUAAAA [Mat - hsa-mir-208a - Mod of JL - D5] (puzzle: Sensor for hsa-mir-208a) |  |  |  | 332 | 13.5 | 618 |
| AGUAGUUUAACAUGAGGAUCACCCAUGUAUCUAUCUGUAACCUAGGAUAUGGACGUUGUAUUUAACCAGAAGGAGGAUCGUUUA [JR_SSNG3_Sub046] (Eterna round: R96, puzzle: Same State NG 3) |  | 22.7 |  |  |  |  |
| GCUGGAAACCACAUGAGGAUCACCCAUGUUCCGGAAACGGCGCAGGAUAUCUGUCCGAAAAGGUCAGAGAAGGGUGGAACCAGC [Fiskers NG3ss - 81] (Eterna round: R96, puzzle: Same State NG 3) | 232 | 136 | 164 |  |  |  |
| GAGCCAGUCCGAGGAUAUUCGUAUUAACACAUGAGGAUCACCCAUGUGGGCUCAGAAGAGCCCUGGGAGAAGGCGGGCUGGCUC [SS-NG2-LRO17] (Eterna round: R96, puzzle: Same State NG 2) | 11.8 | 30.9 | 48.4 |  |  |  |
| AAUUGUUUCUGAGGAUAUCAGUAGUAUGCUUUUUGAGAAGGCAGUACAUGAGGAUCACCCAUGUUGUGGUUUGAUAGAAUGAUA [JR_SSNG1_Sub004] (Eterna round: R96, puzzle: Same State NG 1) |  | 130 |  |  |  |  |
| UGGUACAUGGGAGGAUAUGGGCAUGAGACAUGAGGAUCACCCAUGUAUUAAAAGCCGAGAGGCAUCUAGAAGGCCCAUGUACCU [JL SSNG1 3.89] (Eterna round: R96, puzzle: Same State NG 2) | 15.8 | 80.2 | 158 |  |  |  |
| GAAUAAGUUUACGAGGAUAUGUUCCGCAUAACAUGAGGAUCACCCAUGUGAACAAGAAAGGCGACGCAGAAGGCGUGAGCAGAAG [Mat - Same State 2 - Mod of UCT - D100] (puzzle: Same State 2) |  |  |  | 23 | 11.4 | 117 |

| Sequence | apparent KD of MS2 coat protein (input ligand: FMN 200 uM) [nM] | apparent KD of MS2 coat protein [1] [nM] | apparent KD of MS2 coat protein (input ligand: none) [nM] | apparent KD of MS2 coat protein [2] [nM] | apparent KD of MS2 coat protein [3] [nM] | apparent KD of MS2 coat protein [4] [nM] |
| --- | --- | --- | --- | --- | --- | --- |
| UUUGAAUUGCAAGGAUAUCUUAUUUAGAUUUUAAGAGAAGGUGCUUUACAGUUACAUGAGGAUCACCCAUGUCUUUCUUUUUAU [JR_SSNG1_Sub063] (Eterna round: R96, puzzle: Same State NG 1) |  | 19.3 |  |  |  |  |
| UUGAUUAACGUAGGAUAUCGACCUACAUGAGGAUCACCCAUGUCUUUGUAUAGUUUUUUUUGUUACGAGAAGGACGUUAUGUAU [JR_SSNG2_Sub067] (Eterna round: R96, puzzle: Same State NG 2) | 78.6 | 100 | 106 |  |  |  |
| AUUUUUAAUGCAGGAUAUGAUUAACAUGAGGAUCACCCAUGUGGUGUUGUGAGUAAGGAGAGUGAUCAGAAGGGCAUCUUUUUU [JMF's solution 81] (Eterna round: R96, puzzle: Same State NG 2) | 567 | 529 | 490 |  |  |  |
| GUGGUCAGACAUGAGGAUCACCCAUGUGGAAUAAAUAACGAACAGGAUAUGCAAUAUAGGAUAUAGUAGAAGGGUUGAUUGGUG (Eterna round: R96, puzzle: Same State NG 3) |  | 82.4 |  |  |  |  |
| AACAAUCUAUCUGAGGAUAUCAUGAAAUAAACAUGAGGAUCACCCAUGUGCAGGAAAACUUCAUAUGAGAAGGCAGAUAGAUUGA [salish99_ss2_r3_045] (puzzle: Same State 2) |  |  |  | 17.5 | 27.7 | 26.4 |
| AGAGGAGGCGCAGGAUAUACGACGGAGGACGUGGUAGAAGGGUGCAUGCGAAAACAUGAGGAUCACCCAUGUACCGCGCGACGA [ssng1 c] (Eterna round: R96, puzzle: Same State NG 1) | 816 | 30.1 | 126 |  |  |  |
| AUAAAACAUGAGGAUCACCCAUGUCUCCAAAGUCGAGGAUAUGGGCAAAUAAUAUAAGAACCAGAAGGCGAAUAAU [SS1 Teenbexe 2] (puzzle: Same State 1) |  |  |  | 177 | 179 | 374 |
| GUUACAUGAGGAUCACCCAUGUGUGUGUGGGAGUGAGUGGCUUAGGAUAUCUAUGAUUUUAGUUAAGAGAAGGGAGAUUGUUGU [SS-NG3-LRO05] (Eterna round: R96, puzzle: Same State NG 3) | 554 | 276 | 328 |  |  |  |
| GGAGCCAAGGCAGGAUAUUCAUAUUAAAACAUGAGGAUCACCCAUGUAAAGGCCAGAAGGCCUUGGGAGAAGGGCCAUGGCUCG [Xeonanis - 13 mod1] (Eterna round: R96, puzzle: Same State NG 2) | 19.9 | 37.6 | 49 |  |  |  |
| AGUCCAGCCUGAGCUGGACAAAAGCAUGUACAUGAGGAUCACCCAUGUUCAUGUAUAAGCUUUUUGCUCGUCUUAAA [Zipper 52 - 11] (puzzle: Sensor for hsa-mir-208a) |  |  |  | 18.5 | 10.2 | 17.2 |
| AGAGAACAUGAGGAUCACCCAUGUGAGAGGGAUGUAGGAUAUGUAAGGAAGAAAGAAGGAACAGAAGGACAAAGAG [JR_SS!_Sub066] (puzzle: Same State 1) |  |  |  | 50.5 | 78.5 | 70.7 |
| GGAAUAUUUACAGGAUAUGAGUUGUAAAGUCGAUCAGAAGGGUAGGUGUUUUGCACGGUGUGUUACAUGAGGAUCACCCAUGUU [SameState NG1 #22] (Eterna round: R96, puzzle: Same State NG 1) | 74.1 | 66.2 | 123 |  |  |  |
| GUGGCGGGUUGAGGAUAUUGGUUGCCUAUGUUUUACAUGAGGAUCACCCAUGUGGGUUGCGGUUUCGAGAAGGUAGGUUGCUGG [salish99_SSNG2_r04_047] (Eterna round: R96, puzzle: Same State NG 2) | 420 | 228 | 347 |  |  |  |
| GUAAAACAUGAGGAUCACCCAUGUAAUAAUAUGGGAGGAUAUCUGAUUUAAUUUAAUUUAAGAGAAGGCCUAAAUG [Mat - Same State 1 - Mod of Eli - D58] (puzzle: Same State 1) |  |  |  | 39.9 | 318 | 608 |
| GGAGCCGGCACCGAGGAUAUUCAUAUUAAAACAUGAGGAUCACCCAUGUAGGUCAAAAGACCUUGGGAGAAGGCGGAUCGGCUCG [Xeonanis - 31] (puzzle: Same State 2) |  |  |  | 32.1 | 802 | 481 |

Reference: the supplement of paper PMC9170038
